# In ChEMBL document CHEMBL2203217, “Prohormone-substrate peptide sequence recognition by peptidylglycine α-amidating monooxygenase and its reflection in increased glycolate inhibitor potency” (Bioorg Med Chem Lett, 2012):
# Tests used:
# [1] = substrate: C[C@H](NC(=O)CN)C(=O)N[C@@H](Cc1ccccc1)C(=O)NCC(=O)O; test: (§1) Binding affinity to PAM in human DMS53 cells after 2 hrs by HPLC analysis; assay type: cell-based
# [2] = substrate: CC(=O)N[C@@H](Cc1ccccc1)C(=O)NCC(=O)O; test: as §1; assay type: cell-based
# [3] = substrate: CC(=O)NCC(=O)NCC(=O)O; test: as §1; assay type: cell-based
# [4] = substrate: C[C@H](N)C(=O)N1CCC[C@H]1C(=O)NCC(=O)O; test: as §1; assay type: cell-based
# [5] = substrate: CC[C@H](C)[C@@H]1NC(=O)[C@H](Cc2ccc(O)cc2)NC(=O)[C@@H](N)CSSC[C@@H](C(=O)N2CCC[C@H]2C(=O)N[C@@H](CC(C)C)C(=O)N[C@@H](Cc2ccccc2)C(=O)NCC(=O)O)NC(=O)[C@H](CC(N)=O)NC(=O)[C@H](CCC(N)=O)NC1=O; test: as §1; assay type: cell-based
# [6] = substrate: CC(=O)N[C@@H](CC(C)C)C(=O)N[C@@H](Cc1ccccc1)C(=O)NCC(=O)O; test: as §1; assay type: cell-based
# [7] = substrate: CC(=O)N[C@@H](CC(C)C)C(=O)NCC(=O)NCC(=O)O; test: as §1; assay type: cell-based
# [8] = substrate: CC(C)[C@H](N)C(=O)NCC(=O)N[C@@H](C)C(=O)N1CCC[C@H]1C(=O)NCC(=O)O; test: as §1; assay type: cell-based
# [9] = substrate: O=C(O)CNC(=O)[C@@H]1CCCN1; test: as §1; assay type: cell-based
# [10] = substrate: C[C@H](N)C(=O)N[C@@H](Cc1ccccc1)C(=O)NCC(=O)O; test: as §1; assay type: cell-based
# [11] = substrate: C[C@H](NC(=O)CN)C(=O)N1CCC[C@H]1C(=O)NCC(=O)O; test: as §1; assay type: cell-based
# [12] = substrate: N[C@@H](Cc1ccccc1)C(=O)NCC(=O)O; test: as §1; assay type: cell-based
# [13] = substrate: CC(=O)NCC(=O)O; test: as §1; assay type: cell-based
# [14] = substrate: CC[C@H](C)[C@H](NC(=O)[C@H](C)NC(=O)[C@@H](NC(=O)[C@H](CCC(N)=O)NC(=O)[C@@H]1CCCN1C(=O)[C@H](Cc1ccccc1)NC(=O)[C@@H](NC(=O)[C@H](Cc1cnc[nH]1)NC(=O)[C@H](Cc1ccccc1)NC(=O)[C@H](CCCCN)NC(=O)[C@H](CC(N)=O)NC(=O)[C@H](Cc1ccccc1)NC(=O)[C@H](CC(=O)O)NC(=O)[C@H](CCC(N)=O)NC(=O)[C@@H](NC(=O)[C@H](Cc1ccc(O)cc1)NC(=O)[C@@H](NC(=O)CNC(=O)[C@H](CC(C)C)NC(=O)[C@H](CCSC)NC(=O)[C@@H]1CSSC[C@H](N)C(=O)NCC(=O)N[C@@H](CC(N)=O)C(=O)N[C@@H](CC(C)C)C(=O)N[C@@H](CO)C(=O)N[C@@H]([C@@H](C)O)C(=O)N1)[C@@H](C)O)[C@@H](C)O)[C@@H](C)O)[C@@H](C)O)C(=O)NCC(=O)N[C@H](C(=O)NCC(=O)N[C@@H](C)C(=O)N1CCC[C@H]1C(=O)NCC(=O)O)C(C)C; test: as §1; assay type: cell-based
# [15] = substrate: CC(=O)N1CCC[C@H]1C(=O)N[C@@H](CC(C)C)C(=O)N[C@@H](Cc1ccccc1)C(=O)NCC(=O)O; test: as §1; assay type: cell-based
# [16] = substrate: CC(C)[C@H](N)C(=O)NCC(=O)N[C@@H](C)C(=O)N[C@@H](Cc1ccccc1)C(=O)NCC(=O)O; test: as §1; assay type: cell-based
# [17] = substrate: CC[C@H](C)[C@@H]1NC(=O)[C@H](Cc2ccc(O)cc2)NC(=O)[C@@H](N)CSSC[C@@H](C(=O)N2CCC[C@H]2C(=O)N[C@@H](CC(C)C)C(=O)NCC(=O)NCC(=O)O)NC(=O)[C@H](CC(N)=O)NC(=O)[C@H](CCC(N)=O)NC1=O; test: as §1; assay type: cell-based
# [18] = substrate: CC[C@H](C)[C@H](NC(=O)[C@H](C)NC(=O)[C@@H](NC(=O)[C@H](CCC(N)=O)NC(=O)[C@@H]1CCCN1C(=O)[C@H](Cc1ccccc1)NC(=O)[C@@H](NC(=O)[C@H](Cc1cnc[nH]1)NC(=O)[C@H](Cc1ccccc1)NC(=O)[C@H](CCCCN)NC(=O)[C@H](CC(N)=O)NC(=O)[C@H](Cc1ccccc1)NC(=O)[C@H](CC(=O)O)NC(=O)[C@H](CCC(N)=O)NC(=O)[C@@H](NC(=O)[C@H](Cc1ccc(O)cc1)NC(=O)[C@@H](NC(=O)CNC(=O)[C@H](CC(C)C)NC(=O)[C@H](CCSC)NC(=O)[C@@H]1CSSC[C@H](N)C(=O)NCC(=O)N[C@@H](CC(N)=O)C(=O)N[C@@H](CC(C)C)C(=O)N[C@@H](CO)C(=O)N[C@@H]([C@@H](C)O)C(=O)N1)[C@@H](C)O)[C@@H](C)O)[C@@H](C)O)[C@@H](C)O)C(=O)NCC(=O)N[C@H](C(=O)NCC(=O)N[C@@H](C)C(=O)N[C@@H](Cc1ccccc1)C(=O)NCC(=O)O)C(C)C; test: as §1; assay type: cell-based
# [19] = substrate: CC(=O)N1CCC[C@H]1C(=O)N[C@@H](CC(C)C)C(=O)NCC(=O)NCC(=O)O; test: as §1; assay type: cell-based
# [20] = substrate: C[C@H](NC(=O)CN)C(=O)N[C@@H](Cc1ccccc1)C(=O)NCC(=O)O; test: (§2) Binding affinity to secreted PAM in human DMS53 cell culture medium after 2 hrs by HPLC analysis; conditions: DMS-53
# [21] = substrate: CC(=O)N[C@@H](Cc1ccccc1)C(=O)NCC(=O)O; test: as §2; conditions: DMS-53
# [22] = substrate: CC(=O)NCC(=O)NCC(=O)O; test: as §2; conditions: DMS-53
# [23] = substrate: C[C@H](N)C(=O)N1CCC[C@H]1C(=O)NCC(=O)O; test: as §2; conditions: DMS-53
# [24] = substrate: CC[C@H](C)[C@@H]1NC(=O)[C@H](Cc2ccc(O)cc2)NC(=O)[C@@H](N)CSSC[C@@H](C(=O)N2CCC[C@H]2C(=O)N[C@@H](CC(C)C)C(=O)N[C@@H](Cc2ccccc2)C(=O)NCC(=O)O)NC(=O)[C@H](CC(N)=O)NC(=O)[C@H](CCC(N)=O)NC1=O; test: as §2; conditions: DMS-53
# [25] = substrate: CC(=O)N[C@@H](CC(C)C)C(=O)N[C@@H](Cc1ccccc1)C(=O)NCC(=O)O; test: as §2; conditions: DMS-53
# [26] = substrate: CC(=O)N[C@@H](CC(C)C)C(=O)NCC(=O)NCC(=O)O; test: as §2; conditions: DMS-53
# [27] = substrate: CC(C)[C@H](N)C(=O)NCC(=O)N[C@@H](C)C(=O)N1CCC[C@H]1C(=O)NCC(=O)O; test: as §2; conditions: DMS-53
# [28] = substrate: O=C(O)CNC(=O)[C@@H]1CCCN1; test: as §2; conditions: DMS-53
# [29] = substrate: C[C@H](N)C(=O)N[C@@H](Cc1ccccc1)C(=O)NCC(=O)O; test: as §2; conditions: DMS-53
# [30] = substrate: C[C@H](NC(=O)CN)C(=O)N1CCC[C@H]1C(=O)NCC(=O)O; test: as §2; conditions: DMS-53
# [31] = substrate: N[C@@H](Cc1ccccc1)C(=O)NCC(=O)O; test: as §2; conditions: DMS-53
# [32] = substrate: CC(=O)NCC(=O)O; test: as §2; conditions: DMS-53
# [33] = substrate: CC[C@H](C)[C@H](NC(=O)[C@H](C)NC(=O)[C@@H](NC(=O)[C@H](CCC(N)=O)NC(=O)[C@@H]1CCCN1C(=O)[C@H](Cc1ccccc1)NC(=O)[C@@H](NC(=O)[C@H](Cc1cnc[nH]1)NC(=O)[C@H](Cc1ccccc1)NC(=O)[C@H](CCCCN)NC(=O)[C@H](CC(N)=O)NC(=O)[C@H](Cc1ccccc1)NC(=O)[C@H](CC(=O)O)NC(=O)[C@H](CCC(N)=O)NC(=O)[C@@H](NC(=O)[C@H](Cc1ccc(O)cc1)NC(=O)[C@@H](NC(=O)CNC(=O)[C@H](CC(C)C)NC(=O)[C@H](CCSC)NC(=O)[C@@H]1CSSC[C@H](N)C(=O)NCC(=O)N[C@@H](CC(N)=O)C(=O)N[C@@H](CC(C)C)C(=O)N[C@@H](CO)C(=O)N[C@@H]([C@@H](C)O)C(=O)N1)[C@@H](C)O)[C@@H](C)O)[C@@H](C)O)[C@@H](C)O)C(=O)NCC(=O)N[C@H](C(=O)NCC(=O)N[C@@H](C)C(=O)N1CCC[C@H]1C(=O)NCC(=O)O)C(C)C; test: as §2; conditions: DMS-53
# [34] = substrate: CC(=O)N1CCC[C@H]1C(=O)N[C@@H](CC(C)C)C(=O)N[C@@H](Cc1ccccc1)C(=O)NCC(=O)O; test: as §2; conditions: DMS-53
# [35] = substrate: CC(C)[C@H](N)C(=O)NCC(=O)N[C@@H](C)C(=O)N[C@@H](Cc1ccccc1)C(=O)NCC(=O)O; test: as §2; conditions: DMS-53
# [36] = substrate: CC[C@H](C)[C@@H]1NC(=O)[C@H](Cc2ccc(O)cc2)NC(=O)[C@@H](N)CSSC[C@@H](C(=O)N2CCC[C@H]2C(=O)N[C@@H](CC(C)C)C(=O)NCC(=O)NCC(=O)O)NC(=O)[C@H](CC(N)=O)NC(=O)[C@H](CCC(N)=O)NC1=O; test: as §2; conditions: DMS-53
# [37] = substrate: CC[C@H](C)[C@H](NC(=O)[C@H](C)NC(=O)[C@@H](NC(=O)[C@H](CCC(N)=O)NC(=O)[C@@H]1CCCN1C(=O)[C@H](Cc1ccccc1)NC(=O)[C@@H](NC(=O)[C@H](Cc1cnc[nH]1)NC(=O)[C@H](Cc1ccccc1)NC(=O)[C@H](CCCCN)NC(=O)[C@H](CC(N)=O)NC(=O)[C@H](Cc1ccccc1)NC(=O)[C@H](CC(=O)O)NC(=O)[C@H](CCC(N)=O)NC(=O)[C@@H](NC(=O)[C@H](Cc1ccc(O)cc1)NC(=O)[C@@H](NC(=O)CNC(=O)[C@H](CC(C)C)NC(=O)[C@H](CCSC)NC(=O)[C@@H]1CSSC[C@H](N)C(=O)NCC(=O)N[C@@H](CC(N)=O)C(=O)N[C@@H](CC(C)C)C(=O)N[C@@H](CO)C(=O)N[C@@H]([C@@H](C)O)C(=O)N1)[C@@H](C)O)[C@@H](C)O)[C@@H](C)O)[C@@H](C)O)C(=O)NCC(=O)N[C@H](C(=O)NCC(=O)N[C@@H](C)C(=O)N[C@@H](Cc1ccccc1)C(=O)NCC(=O)O)C(C)C; test: as §2; conditions: DMS-53
# [38] = substrate: CC(=O)N1CCC[C@H]1C(=O)N[C@@H](CC(C)C)C(=O)NCC(=O)NCC(=O)O; test: as §2; conditions: DMS-53
protein,measurement,setting,value
"Peptidyl-glycine alpha-amidating monooxygenase (Homo sapiens), P19021 (protein) MAGRVPSLLVLLVFPSSCLAFRSPLSVFKRFKETTRPFSNECLGTTRPVVPIDSSDFALDIRMPGVTPKQSDTYFCMSMRIPVDEEAFVIDFKPRASMDTVHHMLLFGCNMPSSTGSYWFCDEGTCTDKANILYAWARNAPPTRLPKGVGFRVGGETGSKYFVLQVHYGDISAFRDNNKDCSGVSLHLTRLPQPLIAGMYLMMSVDTVIPAGEKVVNSDISCHYKNYPMHVFAYRVHTHHLGKVVSGYRVRNGQWTLIGRQSPQLPQAFYPVGHPVDVSFGDLLAARCVFTGEGRTEATHIGGTSSDEMCNLYIMYYMEAKHAVSFMTCTQNVAPDMFRTIPPEANIPIPVKSDMVMMHEHHKETEYKDKIPLLQQPKREEEEVLDQGDFYSLLSKLLGEREDVVHVHKYNPTEKAESESDLVAEIANVVQKKDLGRSDAREGAEHERGNAILVRDRIHKFHRLVSTLRPPESRVFSLQQPPPGEGTWEPEHTGDFHMEEALDWPGVYLLPGQVSGVALDPKNNLVIFHRGDHVWDGNSFDSKFVYQQIGLGPIEEDTILVIDPNNAAVLQSSGKNLFYLPHGLSIDKDGNYWVTDVALHQVFKLDPNNKEGPVLILGRSMQPGSDQNHFCQPTDVAVDPGTGAIYVSDGYCNSRIVQFSPSGKFITQWGEESSGSSPLPGQFTVPHSLALVPLLGQLCVADRENGRIQCFKTDTKEFVREIKHSSFGRNVFAISYIPGLLFAVNGKPHFGDQEPVQGFVMNFSNGEIIDIFKPVRKHFDMPHDIVASEDGTVYIGDAHTNTVWKFTLTEKLEHRSVKKAGIEVQEIKEAEAVVETKMENKPTSSELQKMQEKQKLIKEPGSGVPVVLITTLLVIPVVVLLAIAIFIRWKKSRAFGDSEHKLETSSGRVLGRFRGKGSGGLNLGNFFASRKGYSRKGFDRLSTEGSDQEKEDDGSESEEEYSAPLPALAPSSS",Km,[1],40 µM
same,Km,[2],6 µM
same,Km,[3],1600 µM
same,Km,[4],5000 µM
same,Km,[5],5 µM
same,Km,[6],8 µM
same,Km,[7],860 µM
same,Km,[8],1000 µM
same,Km,[9],980 µM
same,Km,[10],180 µM
same,Km,[11],3000 µM
same,Km,[12],6000 µM
same,Km,[13],7500 µM
same,Km,[14],200 µM
same,Km,[15],6 µM
same,Km,[16],8 µM
same,Km,[17],36 µM
same,Km,[18],8 µM
same,Km,[19],660 µM
same,Km,[20],35 µM
same,Km,[21],16 µM
same,Km,[22],1200 µM
same,Km,[23],4000 µM
same,Km,[24],27 µM
same,Km,[25],11 µM
same,Km,[26],860 µM
same,Km,[27],960 µM
same,Km,[28],880 µM
same,Km,[29],200 µM
same,Km,[30],3000 µM
same,Km,[31],6500 µM
same,Km,[32],9900 µM
same,Km,[33],200 µM
same,Km,[34],7 µM
same,Km,[35],18 µM
same,Km,[36],190 µM
same,Km,[37],14 µM
same,Km,[38],550 µM
